According to article PMC2408645:
Where two headings read alike, the source gives them in different places.

What was measured:
Assay in all cases: two-hybrid
[1] = target: KpsC (E. coli K1 (strain EV36)) (UniProt P42217)
[2] = target: NeuS (E. coli K1 (strain EV36))
[3] = target: KpsC (E. coli K1 (strain EV36)) (UniProt P42217); remark: listed apart in the source
[4] = target: NeuS (E. coli K1 (strain EV36)); remark: listed apart in the source

| Substance | beta-galactosidase activity, early [1] [Miller units] | beta-galactosidase activity, late [1] [Miller units] | beta-galactosidase activity, early [2] [Miller units] | beta-galactosidase activity, late [2] [Miller units] | beta-galactosidase activity, early [3] [Miller units] | beta-galactosidase activity, late [3] [Miller units] | beta-galactosidase activity, early [4] [Miller units] | beta-galactosidase activity, late [4] [Miller units] |
| --- | --- | --- | --- | --- | --- | --- | --- | --- |
| KpsC (from UniProt P42217 1-675) (natural protein) | 220 | 540 | 560 | 4700 | 200 | 760 | 420 | 5540 |
| KpsE (natural protein) | 65 | 120 |  |  | 230 | 1170 | 140 | 1050 |
| NeuE (natural protein) |  |  | 17 |  |  |  | 16 |  |
| NeuS (enzyme) | 18 |  |  |  | 15 |  |  |  |
